Results: publication PMC5421877, “SOCS3 inhibits the pathological effects of IL-22 in non-melanoma skin tumor-derived keratinocytes” (Oncotarget, 2017)

Tested on: SOCS3 expression in healthy keratinocytes
Experiment: SOCS3 mRNA and protein induction in healthy keratinocytes
Assay type: cell-based, human
Experimental: Figure 1 IL-22 induces SOCS3, which limits STAT3 and Erk1/2 activation (A) Keratinocyte cultures (n = 3) were stimulated with IL-22 or not for 10 min and protein lysates were subjected to immunoprecipitation and WB analyses for basal and phospho-IL-22R1, Tyk2 or Jak1. (B) WB of time-course experiments were performed on keratinocyte cultures (n = 3) to evaluate basal STAT3, Erk1/2 and MEK or phosphor-STAT3 (Tyr705 and Ser 727), phosphor-Erk1/2 and phospho-MEK. Anti-β-actin Ab was used to normalize sample loading. (C) SOCS mRNA and protein levels were detected by real-time PCR or WB analyses in cultured keratinocytes prepared from healthy skin (n = 3) left untreated or stimulated with IL-22 for the indicated time periods and normalized with β-actin values. (D) HaCaT cells stably transfected with myc-tagged SOCS1 (n = 4), SOCS2 (n = 2) and SOCS3 (n = 4) genes or control plasmids (mock, n = 3) were left untreated or stimulated with IL-22 for 15 min or 3 h and lysates subjected to WB with anti-phospho STAT3 (Tyr705), -phospho STAT3 (Ser727), -STAT3, -phospho Erk, -Erk, -c-myc and -β-actin Abs, as indicated. (E) Keratinocyte cultures were transiently transfected with siRNA specific for SOCS3 or control siRNA (NC). After 48-h transfection, cells were stimulated with IL-22 or not for the indicated time periods. In RNA interference experiments, data were obtained by three independent experiments, and SOCS3 depletion was assessed by real-time PCR and WB. […] Data are expressed as ratio of densitometric intensity (D. I.) of phosphorylated and unphosphorylated STAT3 and Erk1/2 proteins. p < 0.05 (*) values were considered significant.
Figure 4 SOCS3 and SOCS1 are poorly expressed in the epidermis of NMSC lesions and are not induced in transformed keratinocytes by IL-22 (A) Immunohistochemistry for SOCS3 and SOCS1 (red staining) was performed respectively on frozen or paraffin-embedded sections from biopsies of healthy skin (i), NLS (ii, iii) and LS (iv, v) areas of BCC and SCC, specimens. Psoriatic skin biopsies were also analyzed (vi). Sections were counterstained with Mayer's H&E and were visually evaluated by an pathologist experienced in dermatology. […] (B) Graphs show SOCS3 and SOCS1 mRNA levels which were detected by real-time PCR analysis in cultured SCC (CAL27 and CAL33) and BCC (M77015) skin tumor lines left untreated or stimulated with IL-22 or IFN-γ for 3 h and normalized for β-actin mRNA expression levels. […] SOCS1 was detected by IP using a specific anti-SOCS1 Ab, whereas SOCS3 by WB with an anti-SOCS3 Ab. […] Densitometric intensity (D.I.) of SOCS1 or SOCS3/β-actin was calculated from three independent experiments and numerically expressed as D. I. Ratio. *p < 0.01; **p < 0.05. […] SOCS3 and phospho-Tyr STAT3 levels were detected by WB and normalized to β-actin levels. […]

B1: IL-22: cytokine stimulus, R&D Systems (protein, UniProt Q9GZX6 34-179, looked up)
Interleukin-22: APISSHCRLDKSNFQQPYITNRTFMLAKEASLADNNTDVRLIGEKLFHGVSMSERCYLMKQVLNFTLEEVLFPQSDRFQPYMQEVVPFLARLSNRLSTCHIEGDDLHIQRNVQKLKDTVKKLGESGEIKAIGELDLLFMSLRNACI
time of peak SOCS3 protein induction (IL-22 time course, WB, n = 3): 3 h | time of peak SOCS3 mRNA induction (IL-22 time course, real-time PCR, n = 3): 1 h | SOCS3 mRNA and protein expression (healthy keratinocytes, 3 h mRNA, 6 h protein): significantly induced mRNA and protein expression of SOCS3 in healthy keratinocytes
